These results are taken from US20180222982A1 (Novartis, published 2018).

Numbering of substitutions follows the chain as printed. Names may count otherwise.

In test [1] the target is T1, human PD-1 expressed on cells (human, UniProt Q15116 25-288).
T1 construct: whole, on cells; those cells are treated here as the same human PD-1; also called Programmed Death 1; human PD-1 transfected Jurkat cells
Kind of test: FACS on human PD-1 transfected Jurkat cells.

For test [2], the target named is T2, cynomolgus PD-1 expressed on cells (cynomolgus).
T2 construct: whole, on cells; also called cells transfected with cynomolgus PD-1
Kind of test: FACS on cells transfected with cynomolgus PD-1.

Test [3] has as its target T1, human PD-1 expressed on cells. Kind of test: competition binding assay; blocks PD-L2 binding to human PD-1-expressing 300.19 cells.
The target is the same in test [4]. Kind of test: competition binding assay; blocks PD-L1 binding to human PD-1-expressing 300.19 cells.
For test [5], the target named is T2, cynomolgus PD-1 expressed on cells. In words: FACS on cynomolgus T cells (e.g., CD3/CD28 activated CD4 T cells).
The target of test [6] is T3, human PD-1-Ig fusion protein (human, UniProt Q15116 25-167).
T3 construct: not shown: Ig part of the fusion protein
In words: ELISA on human PD-1-Ig fusion protein.

Test [7] deals with T1, human PD-1 expressed on cells. Kind of test: cell-based or functional assay.
Test [8] shares this target. In words: FACS blocking of PD-L1-Ig binding to PD-1-expressing 300.19 cells.

T1 sequence (Q15116 25-288): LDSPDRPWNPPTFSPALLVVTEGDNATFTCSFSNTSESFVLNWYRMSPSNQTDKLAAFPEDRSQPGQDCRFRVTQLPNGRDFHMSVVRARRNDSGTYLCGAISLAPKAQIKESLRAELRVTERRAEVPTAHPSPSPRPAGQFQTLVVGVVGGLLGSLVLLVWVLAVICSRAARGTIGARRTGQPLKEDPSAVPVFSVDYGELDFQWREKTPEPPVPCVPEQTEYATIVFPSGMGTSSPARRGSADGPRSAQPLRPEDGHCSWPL
T3 sequence (Q15116 25-167): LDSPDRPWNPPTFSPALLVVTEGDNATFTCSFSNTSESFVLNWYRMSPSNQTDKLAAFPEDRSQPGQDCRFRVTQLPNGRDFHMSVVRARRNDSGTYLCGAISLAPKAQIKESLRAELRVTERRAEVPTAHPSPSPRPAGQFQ

B1: murine anti-PD-1 monoclonal antibody BAP049 (antibody, V domains shown)
VH: QVQLQQSGSELVRPGASVKLSCKASGYTFTTYWMHWVRQRPGQGLEWIGNIYPGTGGSNFDEKFKNRTSLTVDTSSTTAYMHLASLTSEDSAVYYCTRWTTGTGAYWGQGTLVTVSA
VL: DIVMTQSPSSLTVTAGEKVTMSCKSSQSLLDSGNQKNFLTWYQQKPGQPPKLLIFWASTRESGVPDRFTGSGSVTDFTLTISSVQAEDLAVYYCQNDYSYPCTFGGGTKLEIK
notes: the murine constant regions are not; also called Mu mAb; murine mAb BAP049
B1: the Kd in test [1] was found to be 0.06 nM; in test [2] it was 0.6 nM; in test [5] it was 0.4 nM; in test [6], 0.04 nM. The values for the 50% inhibitory concentration (IC50) in test [3] and in test [4] were 0.9 nM and 0.3 nM, respectively.

B2: humanized anti-PD-1 antibody BAP049-Clone-E (antibody, human IgG4 S228P, kappa)
heavy: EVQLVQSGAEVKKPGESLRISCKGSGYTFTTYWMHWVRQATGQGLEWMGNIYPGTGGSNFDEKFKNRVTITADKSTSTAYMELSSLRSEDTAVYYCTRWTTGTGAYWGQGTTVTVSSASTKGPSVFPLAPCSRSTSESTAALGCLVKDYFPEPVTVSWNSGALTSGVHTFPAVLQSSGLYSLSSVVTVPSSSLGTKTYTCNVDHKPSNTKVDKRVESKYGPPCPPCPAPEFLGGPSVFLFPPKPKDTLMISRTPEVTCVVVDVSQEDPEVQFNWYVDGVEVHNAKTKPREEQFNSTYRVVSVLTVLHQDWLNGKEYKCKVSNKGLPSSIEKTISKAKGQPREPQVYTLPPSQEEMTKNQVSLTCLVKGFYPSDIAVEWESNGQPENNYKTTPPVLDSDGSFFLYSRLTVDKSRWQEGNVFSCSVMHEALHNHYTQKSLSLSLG
light: EIVLTQSPATLSLSPGERATLSCKSSQSLLDSGNQKNFLTWYQQKPGQAPRLLIYWASTRESGVPSRFSGSGSGTDFTFTISSLEAEDAATYYCQNDYSYPYTFGQGTKVEIKRTVAAPSVFIFPPSDEQLKSGTASVVCLLNNFYPREAKVQWKVDNALQSGNSQESVTEQDSKDSTYSLSSTLTLSKADYEKHKVYACEVTHQGLSSPVTKSFNRGEC
Turning to B2, the “ex vivo EC50 for PD-1 blockade” value in test [7] turned out to be 0.42 µg/mL.

B3: humanized anti-PD-1 antibody BAP049-hum09 (antibody, human IgG4 S228P, kappa)
heavy: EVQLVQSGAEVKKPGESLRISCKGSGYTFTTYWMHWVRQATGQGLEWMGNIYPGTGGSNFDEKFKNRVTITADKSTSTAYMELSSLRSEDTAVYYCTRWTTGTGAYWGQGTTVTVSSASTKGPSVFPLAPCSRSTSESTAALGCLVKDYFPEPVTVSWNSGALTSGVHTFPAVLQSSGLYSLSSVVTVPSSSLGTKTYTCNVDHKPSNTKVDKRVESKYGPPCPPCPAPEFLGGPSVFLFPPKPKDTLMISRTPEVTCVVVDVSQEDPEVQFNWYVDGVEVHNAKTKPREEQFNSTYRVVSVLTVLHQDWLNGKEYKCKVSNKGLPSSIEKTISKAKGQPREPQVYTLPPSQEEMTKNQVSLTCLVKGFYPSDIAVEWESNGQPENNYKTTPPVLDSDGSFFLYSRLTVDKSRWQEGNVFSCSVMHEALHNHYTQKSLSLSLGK
light: B2 light with A9D, T10F, L11Q, L13V, S14T, G16K, R18K, A19V, L21I, S22T
notes: Whole IgG4(S228P)/kappa; tested as concentrated supernatant of transiently transfected CHO cells; also called Clone No. 09
Turning to B3, in test [8], the “IC50 (read off the curve)” value is approximately 1 µg/mL.

In general, Kd refers to the constant that tells how readily two partners part at equilibrium. A lower Kd goes with higher affinity. The term IC50 denotes the point on the concentration scale where inhibition reaches its midpoint. Read a high IC50 as weaker potency in that assay.
